{
  "source": "paper PMC8329073",
  "origin": "cited, not measured here",
  "molecular_target": "Thrombin (UniProt P00734+P00734)",
  "details": "20 mM Tris-HCl pH 7.5 (22 °C), 100 mM NaCl, 0.1 mM EDTA, 5 mM MgCl2 (20 mM MgCl2 for DNAzyme), room temperature; indirect read-out by strand-displacement …",
  "data": [
    {"substance": "thrombin DNA aptamer (parent, ref 67)", "values": [
      {"measurement": "Kd", "value": 0.5, "unit": "nM"}
    ]}
  ]
}
